Results published in PMC10502012.

biological target: chicken PHT1 (purified, wild type); test: thermal stability (thermal shift) of PHT1 with TASL peptides; details: chain shown with the change; peptide concentration 50 µM; parent: est. 13.6; read off a plot
Sequence (chain, as listed by the source): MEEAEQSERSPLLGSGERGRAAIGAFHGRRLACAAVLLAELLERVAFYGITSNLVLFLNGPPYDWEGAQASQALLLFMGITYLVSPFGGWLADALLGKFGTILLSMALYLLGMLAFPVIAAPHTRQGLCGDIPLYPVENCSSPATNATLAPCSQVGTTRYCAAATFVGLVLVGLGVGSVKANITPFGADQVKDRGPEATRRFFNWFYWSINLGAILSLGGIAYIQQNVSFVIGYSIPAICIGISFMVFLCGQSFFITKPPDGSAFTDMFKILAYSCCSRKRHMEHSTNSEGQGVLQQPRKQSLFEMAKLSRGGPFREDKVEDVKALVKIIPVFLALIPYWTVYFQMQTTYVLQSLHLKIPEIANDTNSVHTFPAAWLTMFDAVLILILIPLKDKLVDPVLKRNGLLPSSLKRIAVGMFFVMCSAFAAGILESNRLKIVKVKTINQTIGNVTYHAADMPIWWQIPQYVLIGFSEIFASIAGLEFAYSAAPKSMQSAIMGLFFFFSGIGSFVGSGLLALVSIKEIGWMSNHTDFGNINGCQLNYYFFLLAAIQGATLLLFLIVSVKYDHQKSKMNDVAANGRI

Row | other: ΔTm [Kelvin] | Binder
1 | 5.6 | MASEGYLYRIAYL [TASL_(1-13) peptide L2A]
2 | 6.9 | MLSEGYLYAIAYL [TASL_(1-13) peptide R9A]
3 | 11 | MLSEGALYRIAYL [TASL_(1-13) peptide Y6A]
4 | 5.1 | ALSEGYLYRIAYL [TASL_(1-13) peptide M1A]
5 | 13 | MLAEGYLYRIAYL [TASL_(1-13) peptide S3A]
6 | 13 | MLSEGYAYRIAYL [TASL_(1-13) peptide L7A]
7 | 0.45 | MLSAGYLYRIAYL [TASL_(1-13) peptide E4A]
8 | 9.9 | MLSEGYLARIAYL [TASL_(1-13) peptide Y8A]

same assay, conditions: chain shown with the change; peptide concentration 50 µM; read off a plot

Row | other: ΔTm [Kelvin] | Binder
9 | 15 | MLSEGYLYRIAYLA [TASL peptide with a length of 14 residues C14A]

biological target: biotinylated chicken PHT1 (BLI sample) (chicken); test: BLI; biotinylated PHT1 on streptavidin biosensors; Sb27 6-800 nM; 22 °C; 50 mM HEPES pH 7.5, 100 mM NaCl, 0.02% DDM/0.004% CHS, 0.5% BSA; 1:1 binding model; details: not given
Sequence (A6QQL0 other isoform, or with tags, fused parts or gaps): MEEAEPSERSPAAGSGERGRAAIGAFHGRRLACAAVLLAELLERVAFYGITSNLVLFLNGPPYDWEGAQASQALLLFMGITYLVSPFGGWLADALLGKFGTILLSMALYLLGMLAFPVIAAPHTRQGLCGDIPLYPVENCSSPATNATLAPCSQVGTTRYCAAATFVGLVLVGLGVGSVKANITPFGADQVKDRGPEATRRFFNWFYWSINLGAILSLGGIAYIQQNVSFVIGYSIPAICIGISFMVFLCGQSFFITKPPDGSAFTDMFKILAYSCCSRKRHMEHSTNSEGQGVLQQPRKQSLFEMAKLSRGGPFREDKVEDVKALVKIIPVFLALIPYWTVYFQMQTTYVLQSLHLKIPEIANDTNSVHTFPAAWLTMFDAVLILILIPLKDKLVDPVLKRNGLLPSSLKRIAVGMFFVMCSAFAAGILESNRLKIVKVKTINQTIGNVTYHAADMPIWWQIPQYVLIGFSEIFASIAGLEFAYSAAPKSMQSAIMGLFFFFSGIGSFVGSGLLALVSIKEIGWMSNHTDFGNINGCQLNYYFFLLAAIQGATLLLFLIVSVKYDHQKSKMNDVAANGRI

Row | Kd [nM] | Binder
10 | 400 | sybody 27 (VHH) VHH: QVQLVESGGGSVQAGGSLRLSCAASGDIETIWYLGWFRQAPGKEREGVAALSTVTGSTYYADSVKGRFTVSLDNAKNTVYLQMNSLKPEDTALYYCAAAYTGWMAPLWQWVYSYWGQGTQVTVSA
